According to ChEMBL document CHEMBL2074368, “Kinetic analysis of calcein and calcein-acetoxymethylester efflux mediated by the multidrug resistance protein and P-glycoprotein” (Biochemistry, 1998):

Tested on: CC(=O)OCOC(=O)CN(CC(=O)OCOC(C)=O)Cc1c(OC(C)=O)ccc2c1Oc1c(ccc(OC(C)=O)c1CN(CC(=O)OCOC(C)=O)CC(=O)OCOC(C)=O)C21OC(=O)c2ccccc21
Assay: TP_TRANSPORTER: efflux in K562/ADR cells
Assay type: functional, cell-based

Question: “ATP-dependent translocase ABCB1 (Homo sapiens)” was tested. Which Km did it give?
Answer: 0.12 µM
